Residue numbers refer to the chain shown, from its start. Names may count otherwise.
T1: human phosphoserine phosphatase (PSP) (Homo sapiens, UniProt P78330)
T1 construct: gene PSPH; EC 3.1.3.3
T1 sequence (P78330 1-225): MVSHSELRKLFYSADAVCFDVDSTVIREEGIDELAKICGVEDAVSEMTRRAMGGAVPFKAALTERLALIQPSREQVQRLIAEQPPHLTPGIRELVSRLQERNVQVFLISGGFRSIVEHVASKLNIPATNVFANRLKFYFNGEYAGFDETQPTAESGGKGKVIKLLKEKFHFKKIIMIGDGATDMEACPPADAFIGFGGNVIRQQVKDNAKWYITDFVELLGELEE

T2: human phosphoserine phosphatase (PSP) (Homo sapiens, UniProt P78330, N133S)
T2 construct: gene PSPH; EC 3.1.3.3
T2 sequence (P78330 1-225 N133S): T1 sequence (P78330 1-225) with N133S

B1: human phosphoserine phosphatase (PSP), wild-type (enzyme)
chain: SHSELRKLFYSADAVCFDVDSTVIREEGIDELAKICGVEDAVSEMTRRAMGGAVPFKAALTERLALIQPSREQVQRLIAEQPPHLTPGIRELVSRLQERNVQVFLISGGFRSIVEHVASKLNIPATNVFANRLKFYFNGEYAGFDETQPTAESGGKGKVIKLLKEKFHFKKIIMIGDGATDMEACPPADAFIGFGGNVIRQQVKDNAKWYITDFVELLGELEE
notes: phosphoserine phosphatase (PSP), human, EC 3.1.3.3; gene cloned in the NdeI/BamHI sites of pET28a; also called wt PSP; wild-type PSP; source: E. coli BL21(DE3), purified (published procedure)
B2: Asn133Ser variant of human phosphoserine phosphatase (PSP) (enzyme)
chain: B1 chain with N131S
notes: phosphoserine phosphatase (PSP), human, EC 3.1.3.3, with the patients' missense variant c.398A > G p.(Asn133Ser); mutated pET28a plasmid prepared by GenScript; Natural variant found in patients and in gnomAD; Same construct as m1 apart from the substitution; also called Asn133Ser PSP; N133S PSP; source: E. coli BL21(DE3), purified (> 90% purity, published procedure)
B3: human phosphoserine phosphatase (PSP) (Homo sapiens) (protein)
chain: T1 sequence (P78330 1-225)
notes: EC 3.1.3.3
B4: human phosphoserine phosphatase (PSP) (Homo sapiens; N133S) (protein)
chain: T1 sequence (P78330 1-225) with N133S
notes: EC 3.1.3.3

Tests used:
[1] = molecular target: T1, human phosphoserine phosphatase (PSP); assay: PNP-coupled phosphate release assay (MESG, […] nm); format: biochemical; details: read-out: wild-type
[2] = molecular target: T2, human phosphoserine phosphatase (PSP); assay: PNP-coupled phosphate release assay (MESG, […] nm); format: biochemical; details: read-out: Asn133Ser
[3] = molecular target: the molecule itself; assay: SEC; Superdex 75 Increase 5/150 GL, 50 mM HEPES pH 7.0, 100 mM KCl, room temperature, protein loaded at 10 uM; apparent mass from a calibration curve; monomer-dimer
purified protein = substrate: N[C@@H](COP(=O)(O)O)C(=O)O; assay: purified protein; format: biochemical, Homo sapiens; details: 50 mM HEPES, 100 mM KCl, 3 mM MgCl2, pH 7.0, 37 °C, 170 μM acetyl-CoA in coupling system

Row | Molecule | stoichiometry N [3] | Km (purified protein) [µM] | kcat (purified protein) [s⁻¹] | kcat/Km (purified protein) [M⁻¹ s⁻¹] | other results
1 | N[C@@H](CO)C(=O)O [L-serine] | – | – | – | – | IC50 [1]: 290 ± 20 µM; IC50 [2]: 250 ± 25 µM
2 | B1 | 2 | – | – | – | –
3 | B2 | 2 | – | – | – | –
4 | B3 | – | 42 ± 13 | 38 ± 3 | 900000 | –
5 | B4 | – | 31 ± 5 | 28 ± 1 | 900000 | –

— publication PMC11139964, “L-serine deficiency: on the properties of the Asn133Ser variant of human phosphoserine phosphatase” (Scientific Reports, 2024)
